Biological target: human plasmin (UniProt P00747)
Sequence (P00747 97-810): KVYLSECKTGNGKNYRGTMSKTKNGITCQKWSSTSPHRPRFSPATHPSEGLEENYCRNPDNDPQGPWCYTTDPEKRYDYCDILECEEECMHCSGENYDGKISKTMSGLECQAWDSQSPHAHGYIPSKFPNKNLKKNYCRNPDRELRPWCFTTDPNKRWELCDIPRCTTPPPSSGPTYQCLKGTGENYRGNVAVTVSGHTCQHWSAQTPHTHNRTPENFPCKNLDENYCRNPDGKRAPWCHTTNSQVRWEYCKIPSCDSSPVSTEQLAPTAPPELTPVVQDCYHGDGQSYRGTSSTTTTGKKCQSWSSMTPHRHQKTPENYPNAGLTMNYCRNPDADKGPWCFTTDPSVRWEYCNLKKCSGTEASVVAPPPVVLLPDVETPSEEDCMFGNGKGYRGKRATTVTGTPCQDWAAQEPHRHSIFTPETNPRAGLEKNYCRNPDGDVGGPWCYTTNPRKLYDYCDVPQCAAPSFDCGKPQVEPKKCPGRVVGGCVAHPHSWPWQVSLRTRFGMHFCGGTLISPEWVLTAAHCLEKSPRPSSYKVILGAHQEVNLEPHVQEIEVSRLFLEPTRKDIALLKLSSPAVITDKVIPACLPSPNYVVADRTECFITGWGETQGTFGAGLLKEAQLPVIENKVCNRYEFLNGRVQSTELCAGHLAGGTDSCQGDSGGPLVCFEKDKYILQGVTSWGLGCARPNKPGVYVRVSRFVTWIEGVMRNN

Substance	lag in plasminogen activation activity with added plasmin
clot specific streptokinase (CSSK), FBD(4,5)-SK-FBD(4,5), expressed in Pichia pastoris (pPIC9K-alpha modified CSSK/GS115), glycosylated	there was a progressive decrease in the lag in activity in the presence of increasing amounts of plasmin added to the reaction
clot specific streptokinase (CSSK), FBD(4,5)-SK-FBD(4,5), expressed in E. coli	there was a progressive decrease in the lag in activity in the presence of increasing amounts of plasmin added to the reaction

Source: patent US20180362596
